Drawing on article PMC8730730, this text covers Kd for one substance.

A word on the Kd: it is the equilibrium constant for the complex coming apart. A high value points to lower affinity.

For the assay, the target named is enzymatically deglycosylated clinical-grade rshACE2 (human) (UniProt Q9BYF1). Kind of assay: BLI.
UniProt Q9BYF1, sequence (Q9BYF1 18-740 limits assumed): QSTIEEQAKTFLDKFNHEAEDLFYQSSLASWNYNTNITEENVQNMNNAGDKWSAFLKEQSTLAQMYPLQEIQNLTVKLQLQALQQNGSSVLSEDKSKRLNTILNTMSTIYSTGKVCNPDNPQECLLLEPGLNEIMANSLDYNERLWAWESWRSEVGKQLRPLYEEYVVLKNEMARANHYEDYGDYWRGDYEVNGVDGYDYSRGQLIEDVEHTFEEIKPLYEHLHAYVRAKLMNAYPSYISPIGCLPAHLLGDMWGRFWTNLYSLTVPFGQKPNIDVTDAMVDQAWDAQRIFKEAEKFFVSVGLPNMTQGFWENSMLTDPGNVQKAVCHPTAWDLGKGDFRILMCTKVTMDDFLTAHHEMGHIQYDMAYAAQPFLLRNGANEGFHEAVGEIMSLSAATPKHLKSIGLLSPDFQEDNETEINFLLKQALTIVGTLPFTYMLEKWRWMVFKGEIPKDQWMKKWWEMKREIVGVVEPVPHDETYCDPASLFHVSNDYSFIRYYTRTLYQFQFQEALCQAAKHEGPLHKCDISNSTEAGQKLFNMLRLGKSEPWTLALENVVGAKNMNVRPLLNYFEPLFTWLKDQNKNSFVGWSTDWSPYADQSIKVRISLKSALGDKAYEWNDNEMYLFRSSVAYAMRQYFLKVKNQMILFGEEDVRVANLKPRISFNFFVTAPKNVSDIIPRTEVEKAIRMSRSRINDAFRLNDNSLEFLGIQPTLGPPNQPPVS

Consider “SARS-CoV-2 Spike receptor binding domain (residues R319-F541) (from UniProt P0DTC2 319-541) (domain or fragment)”, for which the Kd was 5.1 nM.
